Laboratory results reported in US20180021429A1, “ANTICANCER AGENTS OR ANTIMETASTATIC AGENTS USING FSTL1 AND COMBINATION DRUG THEREOF” (PHARMA FOODS INTERNATIONAL CO., LTD., priority 2015, published 2018).

Assays:
[1] = tested on: human peripheral blood cells; assay: Treg induction inhibition using human peripheral blood cells stimulated with FSTL1 (Example 25); format: cell-based; conditions: FSTL1 5 ng/ml, antibody 5 μg/mL, 3 days; FIG. 113
Protocol: (§1) Human peripheral blood cells (1×10^6 cells) were stimulated using FSTL1 (5 ng/ml), supplemented with the antibody (5 μg/mL), and cultured for 3 days. The percentage of a Foxp3^+CTLA4^+ cell fraction (Exp. 1) or a CD4^+Foxp3^+CTLA4^+ cell fraction (Exp. 2) in CD4^+ T cells was analyzed as Treg cells by flow cytometry. The flow cytometry conditions are as follows.
Blood was collected from a healthy person by the addition of a 1/10 amount of 4% sodium citrate, then layered on Ficoll (specific gravity: 1.090), and centrifuged (1500 rpm, 20 min, room temperature), and a cell fraction present in an intermediate layer was used as “PBMCs”. The antibody (5 μg/mL) was added to a system in which these PBMCs (1×10^6 cells) were cultured for 3 days under stimulation with FSTL1 (5 ng/ml) in a 24-well plate. PBMCs recovered from the culture system were incubated at 4° C. for 1 hour using an anti-CD4 antibody (BD Pharmingen/Becton, Dickinson and Company), an anti-CD25 antibody (BD Pharmingen/Becton, Dickinson and Company), and an anti-FoxP3 antibody (eBioscience). Then, the percentage of a Foxp3+CTLA4+ cell fraction (Exp. 1) or a CD4^+Foxp3^+CTLA4^+ cell fraction (Exp. 2) in CD4^+ T cells contained therein was analyzed as Treg cells using a flow cytometer FACScan (Becton, Dickinson and Company). […]

[2] = molecular target: T1, FSTL1 (Homo sapiens, UniProt Q12841); assay: Treg induction inhibitory activity using human peripheral blood cells stimulated with FSTL1; format: cell-based; parameters: purchased R&D Systems, Inc. 1694-FN-050; conditions: human PBMCs; FSTL1 5 ng/ml; antibody 5 μg/mL; 3 days
T1 sequence (Q12841 21-308): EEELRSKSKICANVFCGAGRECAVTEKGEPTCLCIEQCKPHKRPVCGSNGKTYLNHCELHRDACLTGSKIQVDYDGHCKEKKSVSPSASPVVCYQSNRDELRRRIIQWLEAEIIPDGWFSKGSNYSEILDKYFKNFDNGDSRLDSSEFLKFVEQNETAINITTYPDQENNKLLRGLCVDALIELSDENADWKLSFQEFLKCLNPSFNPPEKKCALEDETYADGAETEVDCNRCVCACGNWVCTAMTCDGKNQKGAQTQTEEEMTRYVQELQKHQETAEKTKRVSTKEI
Protocol: as §1
Blood was collected from a healthy person by the addition of a 1/10 amount of 4% sodium citrate, then layered on Ficoll (specific gravity: 1.090), and centrifuged (1500 rpm, 20 min, room temperature), and a cell fraction present in an intermediate layer was used as “PBMCs”. The antibody (5 μg/mL) was added to a system in which these PBMCs (1×10^6 cells) were cultured for 3 days under stimulation with FSTL1 (5 ng/ml) in a 24-well plate. […] Then, the percentage of a Foxp3+CTLA4+ cell fraction (Exp. 1) or a CD4^+Foxp3^+CTLA4^+ cell fraction (Exp. 2) in CD4+ T cells contained therein was analyzed as Treg cells using a flow cytometer FACScan (Becton, Dickinson and Company).
as §1, with “a Foxp3^+ CTLA4^+” for “a Foxp3^+CTLA4^+”, “cytometry. […]” for “cytometry. The flow cytometry conditions are as follows.”

[3] = molecular target: T1, FSTL1; assay: Action of anti-FSTL1 antibody on Panc1 under FSTL1 stimulation; format: cell-based; parameters: purchased R&D Systems, Inc. 1694-FN-050; conditions: Panc1 stimulated with FSTL1 for 3 days; antibody 5 μg/ml
Protocol: Next, in order to examine how surrounding tumor cells were changed in a cancer microenvironment by receiving FSTL1 produced by Snail/FSTL1-expressing cells, and how the anti-FSTL1 antibody acts thereon, a human pancreatic cancer cell line Panc1 confirmed to express Snail or FSTL1 only slightly was stimulated with FSTL1 for 3 days. The anti-FSTL1 antibody (#6-55, 5 μg/ml) or a control antibody (aHema, 5 μg/ml) was added to this culture system, and subsequent change in cell function was analyzed in the same way as in the preceding paragraph. […] The paper also reports that FSTL1 enhances invasive capacity.

[4] = tested on: mouse lymphoma EL4; assay: In vivo, mouse lymphoma EL4 (Example 23); conditions: intraperitoneal 10 mg/kg on days 3 and 6, vs control antibody
Protocol: The drug efficacy of the anti-FSTL1 antibody was evaluated according to Examples 17 to 20 using mouse lymphoma EL4, which is a cancer type having enhanced FSTL1 expression.
1. Experiment Group (n=5) • 1. Mouse lymphoma EL4+control IgG (anti-DNP mAb) • 2. Mouse lymphoma EL4+anti-FSTL1 mAb (#6-55)
• Day 0: transplantation of tumor cells (1×10^6 cells subcutaneously & 1×10^6 cells intravenously) • Day 3: intraperitoneal administration of the antibody (first dose, corresponding to 200 μg/mouse=10 mg/kg) • Day 6: intraperitoneal administration of the antibody (second dose, corresponding to 200 μg/mouse=10 mg/kg) • Day 15: various immunological assays
• Effects on the growth of subcutaneous tumor (calculation of tumor volume by tumor size measurement): measured 3, 6, and 10 days after tumor implantation

B1: #6-55: chicken-mouse chimeric anti-FSTL1 antibody clone; variable regions SEQ ID NO: 783 (light), 785 (heavy) (antibody, V domains shown)
VH: AVTLDESGGGLQTPGGALSLVCKGSGFTFTSVTMQWVRQAPGKGLEWVASVCSGSSTYYAPAVKGRATISRDNGQSTVRLQLSNLRPEDTGTYYCAKIAGRARWSCTSAAYNIDAWGHGTEVIVSS
VL: ASTQPSSVSAIPGETVKITCSGGGNNYGWYQQRSPGSAPVTVIYYNDNRPSNIPSRFSGSTSGSTSTLTITGVQADDEAIYYCGSWDSNTDSGIFGAGTTLTVL
modifications: mouse constant regions
B1 was tested, and the “Treg induction caused by FSTL1 (Foxp3+CTLA4+ fraction in CD4+ T cells)” value [1] was “significantly suppressed”, the “Treg induction caused by FSTL1 (Foxp3+CTLA4+ fraction in CD4+ T cells)” value [2] was “significantly suppressed” and the cell growth [3] was “the cell growth was reduced”. The “invasive capacity enhanced by FSTL1” value [3] was “the action thereof is canceled” and the subcutaneous tumor growth [4] was “strongly suppressed”.
